Source: IntAct's records for PubMed 16956611

B1: Histone deacetylase 7 (Mus musculus), Q8C2B3 (parent)
chain: MHSPGAGCPALQPDTPGSQPQPMDLRVGQRPTVEPPPEPALLTLQHPQRLHRHLFLAGLHQQQRSAEPMRLSMDPPMPELQGGQQEQELRQLLNKDKSKRSAVASSVVKQKLAEVILKKQQAALERTVHPSSPSIPYRTLEPLDTEGAARSVLSSFLPPVPSLPTEPPEHFPLRKTVSEPNLKLRYKPKKSLERRKNPLLRKESAPPSLRRRPAETLGDSSPSSSSTPASGCSSPNDSEHGPNPALGSEADGDRRTHSTLGPRGPVLGNPHAPLFLHHGLEPEAGGTLPSRLQPILLLDPSVSHAPLWTVPGLGPLPFHFAQPLLTTERLSGSGLHRPLNRTRSEPLPPSATASPLLAPLQPRQDRLKPHVQLIKPAISPPQRPAKPSEKPRLRQIPSAEDLETDGGGVGPMANDGLEHRESGRGPPEGRGSISLQQHQQVPPWEQQHLAGRLSQGSPGDSVLIPLAQVGHRPLSRTQSSPAAPVSLLSPEPTCQTQVLNSSETPATGLVYDSVMLKHQCSCGDNSKHPEHAGRIQSIWSRLQERGLRSQCECLRGRKASLEELQSVHSERHVLLYGTNPLSRLKLDNGKLTGLLAQRTFVMLPCGGVGVDTDTIWNELHSSNAARWAAGSVTDLAFKVASRELKNGFAVVRPPGHHADHSTAMGFCFFNSVAIACRQLQQHGKASKILIVDWDVHHGNGTQQTFYQDPSVLYISLHRHDDGNFFPGSGAVDEVGTGSGEGFNVNVAWAGGLDPPMGDPEYLAAFRIVVMPIAREFAPDLVLVSAGFDAAEGHPAPLGGYHVSAKCFGYMTQQLMNLAGGAVVLALEGGHDLTAICDASEACVAALLGNKVDPLSEESWKQKPNLSAIRSLEAVVRVHRKYWGCMQRLASCPDSWLPRVPGADAEVEAVTALASLSVGILAEDRPSERLVEEEEPMNL

Variants of: B1
Settings: with 1433e_mouse Ywhae

| Variant | effect of a mutation on the interaction |
| --- | --- |
| S178E;S344E;S479E | disrupting interaction |

Variants of: B1
Settings: with 1433e_mouse Ywhae
Remark: another data set of the same source

| Variant | effect of a mutation on the interaction |
| --- | --- |
| S178E;S344E;S479E | disrupting interaction |

Variants of: B1
Settings: with mef2a_mouse Mef2a

| Variant | effect of a mutation on the interaction |
| --- | --- |
| S178A;S344A;S479A | disrupting interaction strength |
